Test results published in patent publication US20110229406A1.

Target: HER-3 (human, on cells) (human) (UniProt P21860)
Assay: indirect FACS Scatchard analysis on cells

Kd: 13.8 nM
Substance: U1-46 (antibody)
